B1: GAGE1 (parent)
chain: QPPEMIGPMRPEQFSDEVEPATPE
B2: KLHL14 (parent)
chain: YVIGGRNETGYLSSVECYNLETNE

Variants of: B1
Test: protein stability index of a GFP-peptide fusion (GPS, HEK-293T) (PSI 1-6); higher = more stable
Conditions: c terminus: a fixed tail appended
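Note: lentivirally expressed fusions sorted by FACS into six bins by GFP to DsRed ratio, PSI derived from sequencing read proportions per bin multiplied by bin number.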

Variant	protein stability index
QPPEMIGPMRPEQFSDEVEPATEE	4.81
QPPEMIGPMRPEQFSDEVEPATLE	4.9
QPPEMIGPMRPEQFSDEVEPATHE	5
QPPEMIGPMRPEQFSDEVEPATVE	4.5
QPPEMIGPMRPEQFSDEVEPATCE	4.57
QPPEMIGPMRPEQFSDEVEPATME	5.05
QPPEMIGPMRPEQFSDEVEPATNE	5.26
QPPEMIGPMRPEQFSDEVEPATRE	5.3
QPPEMIGPMRPEQFSDEVEPATTE	4.81
QPPEMIGPMRPEQFSDEVEPATFE	4.69
QPPEMIGPMRPEQFSDEVEPATWE	4.41
QPPEMIGPMRPEQFSDEVEPATDE	5.28
QPPEMIGPMRPEQFSDEVEPATQE	5.16
QPPEMIGPMRPEQFSDEVEPATKE	5.1
QPPEMIGPMRPEQFSDEVEPATGE	5.2
QPPEMIGPMRPEQFSDEVEPATSE	5.14
QPPEMIGPMRPEQFSDEVEPATIE	4.72
QPPEMIGPMRPEQFSDEVEPATYE	4.4
QPPEMIGPMRPEQFSDEVEPATAE	5.02
QPPEMIGPMRPEQFSDEVEPAHPE	4.89
QPPEMIGPMRPEQFSDEVEPARPE	4.61
QPPEMIGPMRPEQFSDEVEPALPE	4.79
QPPEMIGPMRPEQFSDEVEPAFPE	4.46
QPPEMIGPMRPEQFSDEVEPAWPE	4.35
QPPEMIGPMRPEQFSDEVEPAAPE	4.6

Variant	protein stability index
QPPEMIGPMRPEQFSDEVEPAQPE	5.2
QPPEMIGPMRPEQFSDEVEPAIPE	4.66
QPPEMIGPMRPEQFSDEVEPAKPE	4.96
QPPEMIGPMRPEQFSDEVEPACPE	4.97
QPPEMIGPMRPEQFSDEVEPAPPE	5.08
QPPEMIGPMRPEQFSDEVEPADPE	5.43
QPPEMIGPMRPEQFSDEVEPAYPE	4.84
QPPEMIGPMRPEQFSDEVEPAMPE	4.79
QPPEMIGPMRPEQFSDEVEPAEPE	5.2
QPPEMIGPMRPEQFSDEVEPAGPE	5.15
QPPEMIGPMRPEQFSDEVEPANPE	4.56
QPPEMIGPMRPEQFSDEVEPAVPE	4.8
QPPEMIGPMRPEQFSDEVEPKTPE	5.32
QPPEMIGPMRPEQFSDEVEPTTPE	4.83
QPPEMIGPMRPEQFSDEVEPSTPE	4.79
QPPEMIGPMRPEQFSDEVEPETPE	5.21
QPPEMIGPMRPEQFSDEVEPGTPE	4.98
QPPEMIGPMRPEQFSDEVEPQTPE	4.79
QPPEMIGPMRPEQFSDEVEPWTPE	4.7
QPPEMIGPMRPEQFSDEVEPYTPE	4.08
QPPEMIGPMRPEQFSDEVEPNTPE	4.29
QPPEMIGPMRPEQFSDEVEPRTPE	5
QPPEMIGPMRPEQFSDEVEPVTPE	5.34
QPPEMIGPMRPEQFSDEVEPDTPE	5.12
QPPEMIGPMRPEQFSDEVEPPTPE	4.6

Variant	protein stability index
QPPEMIGPMRPEQFSDEVEPHTPE	4.66
QPPEMIGPMRPEQFSDEVEPMTPE	5.17
QPPEMIGPMRPEQFSDEVEPCTPE	4.59
QPPEMIGPMRPEQFSDEVEPFTPE	5.05
QPPEMIGPMRPEQFSDEVEPITPE	4.87
QPPEMIGPMRPEQFSDEVEPLTPE	4.9
QPPEMIGPMRPEQFSDEVEPATPD	4.51
QPPEMIGPMRPEQFSDEVEPATPC	4.6
QPPEMIGPMRPEQFSDEVEPATPP	4.65
QPPEMIGPMRPEQFSDEVEPATPS	4.65
QPPEMIGPMRPEQFSDEVEPATPR	4.27
QPPEMIGPMRPEQFSDEVEPATPM	4.37
QPPEMIGPMRPEQFSDEVEPATPI	4.56
QPPEMIGPMRPEQFSDEVEPATPT	4.98
QPPEMIGPMRPEQFSDEVEPATPY	4.57
QPPEMIGPMRPEQFSDEVEPATPG	4.67
QPPEMIGPMRPEQFSDEVEPATPL	4.09
QPPEMIGPMRPEQFSDEVEPATPQ	4.61
QPPEMIGPMRPEQFSDEVEPATPK	4.68
QPPEMIGPMRPEQFSDEVEPATPA	4.99
QPPEMIGPMRPEQFSDEVEPATPV	4.45
QPPEMIGPMRPEQFSDEVEPATPH	4.62
QPPEMIGPMRPEQFSDEVEPATPN	5.18
QPPEMIGPMRPEQFSDEVEPATPF	4.83
QPPEMIGPMRPEQFSDEVEPATPW	4.16

Variants of: B2
Test: as above
Conditions: c terminus: a fixed tail appended

Variant	protein stability index
YVIYGRNETGYLSSVECYNLETNE	2.42
YVITGRNETGYLSSVECYNLETNE	1.5
YVIIGRNETGYLSSVECYNLETNE	2.1
YVINGRNETGYLSSVECYNLETNE	1.89
YVIQGRNETGYLSSVECYNLETNE	2.55
YVIVGRNETGYLSSVECYNLETNE	1.3
YVIFGRNETGYLSSVECYNLETNE	1.31
YVISGRNETGYLSSVECYNLETNE	2.46
YVIKGRNETGYLSSVECYNLETNE	2.34
YVIPGRNETGYLSSVECYNLETNE	2.56
YVILGRNETGYLSSVECYNLETNE	1.47
YVIRGRNETGYLSSVECYNLETNE	1.71
YVIDGRNETGYLSSVECYNLETNE	1.89
YVICGRNETGYLSSVECYNLETNE	1.75
YVIAGRNETGYLSSVECYNLETNE	1.77
YVIWGRNETGYLSSVECYNLETNE	2.32
YVIHGRNETGYLSSVECYNLETNE	2.4
YVIMGRNETGYLSSVECYNLETNE	2.31
YVIEGRNETGYLSSVECYNLETNE	2.11
YVIGGENETGYLSSVECYNLETNE	2.97
YVIGGLNETGYLSSVECYNLETNE	2.09
YVIGGNNETGYLSSVECYNLETNE	2.2
YVIGGTNETGYLSSVECYNLETNE	2.52

Variant	protein stability index
YVIGGHNETGYLSSVECYNLETNE	1.9
YVIGGVNETGYLSSVECYNLETNE	1.87
YVIGGWNETGYLSSVECYNLETNE	1.96
YVIGGKNETGYLSSVECYNLETNE	2.05
YVIGGQNETGYLSSVECYNLETNE	2.77
YVIGGDNETGYLSSVECYNLETNE	2.57
YVIGGSNETGYLSSVECYNLETNE	2.35
YVIGGANETGYLSSVECYNLETNE	2.93
YVIGGGNETGYLSSVECYNLETNE	1.92
YVIGGINETGYLSSVECYNLETNE	1.67
YVIGGMNETGYLSSVECYNLETNE	1.69
YVIGGFNETGYLSSVECYNLETNE	1.5
YVIGGCNETGYLSSVECYNLETNE	2.21
YVIGGPNETGYLSSVECYNLETNE	2.51
YTIGGRNETGYLSSVECYNLETNE	3.5
YMIGGRNETGYLSSVECYNLETNE	3.87
YDIGGRNETGYLSSVECYNLETNE	4.57
YFIGGRNETGYLSSVECYNLETNE	3.32
YWIGGRNETGYLSSVECYNLETNE	2.44
YGIGGRNETGYLSSVECYNLETNE	4
YIIGGRNETGYLSSVECYNLETNE	2.14
YSIGGRNETGYLSSVECYNLETNE	3.89
YHIGGRNETGYLSSVECYNLETNE	2.15

Variant	protein stability index
YRIGGRNETGYLSSVECYNLETNE	3.4
YEIGGRNETGYLSSVECYNLETNE	4.59
YLIGGRNETGYLSSVECYNLETNE	3.33
YPIGGRNETGYLSSVECYNLETNE	3.9
YKIGGRNETGYLSSVECYNLETNE	3.91
YQIGGRNETGYLSSVECYNLETNE	2.7
YCIGGRNETGYLSSVECYNLETNE	2.87
YNIGGRNETGYLSSVECYNLETNE	4.24
YYIGGRNETGYLSSVECYNLETNE	3.4
YAIGGRNETGYLSSVECYNLETNE	3.08
CVIGGRNETGYLSSVECYNLETNE	3.48
HVIGGRNETGYLSSVECYNLETNE	4.61
PVIGGRNETGYLSSVECYNLETNE	4.82
WVIGGRNETGYLSSVECYNLETNE	2.87
KVIGGRNETGYLSSVECYNLETNE	4.12
NVIGGRNETGYLSSVECYNLETNE	4.25
QVIGGRNETGYLSSVECYNLETNE	4.68
EVIGGRNETGYLSSVECYNLETNE	4.45
MVIGGRNETGYLSSVECYNLETNE	3.55
SVIGGRNETGYLSSVECYNLETNE	4.63
AVIGGRNETGYLSSVECYNLETNE	4.43
DVIGGRNETGYLSSVECYNLETNE	4.64
FVIGGRNETGYLSSVECYNLETNE	2.19

Variant	protein stability index
GVIGGRNETGYLSSVECYNLETNE	4.99
LVIGGRNETGYLSSVECYNLETNE	2.96
TVIGGRNETGYLSSVECYNLETNE	4.71
VVIGGRNETGYLSSVECYNLETNE	3.2
IVIGGRNETGYLSSVECYNLETNE	2.06
RVIGGRNETGYLSSVECYNLETNE	4.39
YVVGGRNETGYLSSVECYNLETNE	2.24
YVTGGRNETGYLSSVECYNLETNE	2.18
YVSGGRNETGYLSSVECYNLETNE	1.61
YVGGGRNETGYLSSVECYNLETNE	2.4
YVKGGRNETGYLSSVECYNLETNE	1.58
YVEGGRNETGYLSSVECYNLETNE	2.64
YVRGGRNETGYLSSVECYNLETNE	1.49
YVCGGRNETGYLSSVECYNLETNE	1.66
YVPGGRNETGYLSSVECYNLETNE	2.65
YVQGGRNETGYLSSVECYNLETNE	2.06
YVFGGRNETGYLSSVECYNLETNE	1.76
YVWGGRNETGYLSSVECYNLETNE	1.02
YVHGGRNETGYLSSVECYNLETNE	1.83
YVLGGRNETGYLSSVECYNLETNE	1.84
YVNGGRNETGYLSSVECYNLETNE	1.81
YVAGGRNETGYLSSVECYNLETNE	3.4
YVYGGRNETGYLSSVECYNLETNE	1.3

Variant	protein stability index
YVDGGRNETGYLSSVECYNLETNE	2.39
YVMGGRNETGYLSSVECYNLETNE	2.1
YVIGPRNETGYLSSVECYNLETNE	1.89
YVIGLRNETGYLSSVECYNLETNE	2.82
YVIGCRNETGYLSSVECYNLETNE	1.93
YVIGNRNETGYLSSVECYNLETNE	1.92
YVIGQRNETGYLSSVECYNLETNE	2.1
YVIGWRNETGYLSSVECYNLETNE	2.92
YVIGRRNETGYLSSVECYNLETNE	1.71
YVIGIRNETGYLSSVECYNLETNE	2.24
YVIGDRNETGYLSSVECYNLETNE	3.12
YVIGFRNETGYLSSVECYNLETNE	2.41
YVIGTRNETGYLSSVECYNLETNE	2.33
YVIGSRNETGYLSSVECYNLETNE	2.31
YVIGARNETGYLSSVECYNLETNE	1.71
YVIGVRNETGYLSSVECYNLETNE	1.49
YVIGERNETGYLSSVECYNLETNE	3.15
YVIGYRNETGYLSSVECYNLETNE	1.72
YVIGMRNETGYLSSVECYNLETNE	1.69
YVIGHRNETGYLSSVECYNLETNE	1.74
YVIGKRNETGYLSSVECYNLETNE	1.76

Reference: the supplement of paper PMC10567573
